Experimental data as given in publication PMC6100179, “Kinetic Basis of the Bifunctionality of SsoII DNA Methyltransferase”.
Changes are numbered by the printed parent chain.

Tests used:
M.SsoII (monomer on DNA) [1] = biological target: T1, M.SsoII (monomer on DNA) (UniProt P34879 1-379); experiment: stopped-flow fluorescence anisotropy; 100 uM AdoHcy; k1 226 uM-1 s-1, k-1 158 s-1, k2* 0.22 s-1, k-2* 0.50 s-1; EMSA: 50 mM Tris-HCl pH 7.5, 100 mM NaCl, 5 mM beta-mercaptoethanol, 0.1 mg/mL BSA, 25% glycerol, 100 uM AdoHcy, 37 C then room temperature, 2.5 nM DNA; stopped-flow: 50 mM Tris-HCl pH 7.5, 100 mM NaCl, 5 mM beta-mercaptoethanol, 25 C, 100 nM DNA; settings: protein: recombinant; tags: N-terminal His-tag MRGS(H)6TDPLETC; label: TAMRA (bottom 33 or 35)
T1 sequence: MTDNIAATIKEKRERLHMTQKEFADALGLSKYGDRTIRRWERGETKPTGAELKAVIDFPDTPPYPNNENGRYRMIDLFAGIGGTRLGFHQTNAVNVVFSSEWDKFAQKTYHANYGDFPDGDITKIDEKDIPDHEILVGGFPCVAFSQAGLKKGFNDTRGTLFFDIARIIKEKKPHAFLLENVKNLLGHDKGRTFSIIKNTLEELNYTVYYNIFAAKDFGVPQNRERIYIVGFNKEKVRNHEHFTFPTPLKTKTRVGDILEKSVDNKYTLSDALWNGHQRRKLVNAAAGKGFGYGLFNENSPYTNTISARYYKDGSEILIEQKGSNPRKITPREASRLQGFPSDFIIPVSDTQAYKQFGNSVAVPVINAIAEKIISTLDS

M.SsoII (monomer on DNA) [2] = biological target: T1, M.SsoII (monomer on DNA); experiment: stopped-flow fluorescence anisotropy; 100 uM AdoHcy; k1 181 uM-1 s-1, k-1 143 s-1, k2* 0.40 s-1, k-2* 1.5 s-1; EMSA: 50 mM Tris-HCl pH 7.5, 100 mM NaCl, 5 mM beta-mercaptoethanol, 0.1 mg/mL BSA, 25% glycerol, 100 uM AdoHcy, 37 C then room temperature, 2.5 nM DNA; stopped-flow: 50 mM Tris-HCl pH 7.5, 100 mM NaCl, 5 mM beta-mercaptoethanol, 25 C, 100 nM DNA; settings: protein: recombinant; tags: N-terminal His-tag MRGS(H)6TDPLETC; label: TAMRA (top 25 or bottom 33/35)
[3] = biological target: T2, M.SsoII (two subunits on DNA) (UniProt P34879 1-379); experiment: EMSA; 100 uM AdoHcy; cooperative, C2 much more than C1; EMSA: 50 mM Tris-HCl pH 7.5, 100 mM NaCl, 5 mM beta-mercaptoethanol, 0.1 mg/mL BSA, 25% glycerol, 100 uM AdoHcy, 37 C then room temperature, 2.5 nM DNA; stopped-flow: 50 mM Tris-HCl pH 7.5, 100 mM NaCl, 5 mM beta-mercaptoethanol, 25 C, 100 nM DNA; settings: protein: recombinant; tags: N-terminal His-tag MRGS(H)6TDPLETC; chain copies: 2; label: TAMRA (internal, on dU C5, position 5)
T2 sequence: T1 sequence

M.SsoII (monomer on DNA) [4] = biological target: T1, M.SsoII (monomer on DNA); experiment: stopped-flow fluorescence anisotropy; 100 uM AdoHcy; k1 352 uM-1 s-1, k-1 71 s-1, k2 2.30 s-1, k-2 12.8 s-1; EMSA: 50 mM Tris-HCl pH 7.5, 100 mM NaCl, 5 mM beta-mercaptoethanol, 0.1 mg/mL BSA, 25% glycerol, 100 uM AdoHcy, 37 C then room temperature, 2.5 nM DNA; stopped-flow: 50 mM Tris-HCl pH 7.5, 100 mM NaCl, 5 mM beta-mercaptoethanol, 25 C, 100 nM DNA; settings: protein: recombinant; tags: N-terminal His-tag MRGS(H)6TDPLETC; label: TAMRA (internal, on dU C5, position 5)
[5] = biological target: T2, M.SsoII (two subunits on DNA); experiment: EMSA; 100 uM AdoHcy; C2* above 2:1 protein/DNA, second molecule presumably nonspecific; EMSA: 50 mM Tris-HCl pH 7.5, 100 mM NaCl, 5 mM beta-mercaptoethanol, 0.1 mg/mL BSA, 25% glycerol, 100 uM AdoHcy, 37 C then room temperature, 2.5 nM DNA; stopped-flow: 50 mM Tris-HCl pH 7.5, 100 mM NaCl, 5 mM beta-mercaptoethanol, 25 C, 100 nM DNA; settings: protein: recombinant; tags: N-terminal His-tag MRGS(H)6TDPLETC; chain copies: 2; label: TAMRA
[6] = biological target: T2, M.SsoII (two subunits on DNA); experiment: EMSA; 100 uM AdoHcy; C1 and C2; EMSA: 50 mM Tris-HCl pH 7.5, 100 mM NaCl, 5 mM beta-mercaptoethanol, 0.1 mg/mL BSA, 25% glycerol, 100 uM AdoHcy, 37 C then room temperature, 2.5 nM DNA; stopped-flow: 50 mM Tris-HCl pH 7.5, 100 mM NaCl, 5 mM beta-mercaptoethanol, 25 C, 100 nM DNA; settings: protein: recombinant; tags: N-terminal His-tag MRGS(H)6TDPLETC; chain copies: 2; label: TAMRA (position 5)
M.SsoII (monomer on DNA) [7] = biological target: T1, M.SsoII (monomer on DNA); experiment: stopped-flow fluorescence anisotropy; 100 uM AdoMet; k1 390 uM-1 s-1, k-1 88 s-1, k2 1.13 s-1, k-2 9.6 s-1; EMSA: 50 mM Tris-HCl pH 7.5, 100 mM NaCl, 5 mM beta-mercaptoethanol, 0.1 mg/mL BSA, 25% glycerol, 100 uM AdoHcy, 37 C then room temperature, 2.5 nM DNA; stopped-flow: 50 mM Tris-HCl pH 7.5, 100 mM NaCl, 5 mM beta-mercaptoethanol, 25 C, 100 nM DNA; settings: protein: recombinant; tags: N-terminal His-tag MRGS(H)6TDPLETC; label: TAMRA (position 5)
M.SsoII (monomer on DNA) [8] = biological target: T1, M.SsoII (monomer on DNA); experiment: stopped-flow fluorescence anisotropy; 100 uM AdoMet; k1 386 uM-1 s-1, k-1 154 s-1, k2 0.68 s-1, k-2 6.5 s-1; EMSA: 50 mM Tris-HCl pH 7.5, 100 mM NaCl, 5 mM beta-mercaptoethanol, 0.1 mg/mL BSA, 25% glycerol, 100 uM AdoHcy, 37 C then room temperature, 2.5 nM DNA; stopped-flow: 50 mM Tris-HCl pH 7.5, 100 mM NaCl, 5 mM beta-mercaptoethanol, 25 C, 100 nM DNA; settings: protein: recombinant; tags: N-terminal His-tag MRGS(H)6TDPLETC; label: TAMRA (position 21)

B1: 60met-mC (dsDNA)
DNA 1: GACTTACAGTTGATAGTATGAAGCTAGAGCCAGGTTGGCAGCATTCTACTCATGTACTTG
DNA 2: CAAGTACATGAGTAGAATGCTGCCAACCTGGCTCTAGCTTCATACTATCAACTGTAAGTC
modifications: 5-methylcytosine in top strand of methylation site
binding result (M.SsoII (monomer on DNA) [1]): binds

B2: 60met (dsDNA)
DNA 1: B1 DNA 1
DNA 2: B1 DNA 2
binding result (M.SsoII (monomer on DNA) [2]): binds

B3: 60reg-1 (dsDNA)
DNA 1: ACGTTCATAATTGGAATCAAAACAGGACAAATTGTCCTAAAACCAACACTTAATTCTGGT
DNA 2: ACCAGAATTAAGTGTTGGTTTTAGGACAATTTGTCCTGTTTTGATTCCAATTATGAACGT
binding result [3]: binds
binding result (M.SsoII (monomer on DNA) [4]): binds

B4: 60half-2 (dsDNA)
DNA 1: B3 DNA 1 with A24C, G25A, G26T, A27T, C28A, A29T, A30C
DNA 2: B3 DNA 2 with T31G, T32A, G33T, T34A, C35A, C36T, T37G
binding result [5]: binds

B5: 60half-1 (dsDNA)
DNA 1: B3 DNA 1 with T32C, T33A, G34T, C36A, C37T, T38C
DNA 2: B3 DNA 2 with A23G, G24A, G25T, C27A, A28T, A29G
binding result [5]: binds

B6: 60reg-2 (dsDNA)
DNA 1: ACGTTCATAATTGGAATCTTTTCAGGACAAATTGTCCTTTTTCCAACACTTAATTCTGGT
DNA 2: ACCAGAATTAAGTGTTGGAAAAAGGACAATTTGTCCTGAAAAGATTCCAATTATGAACGT
binding result [6]: binds
binding result (M.SsoII (monomer on DNA) [7]): binds

B7: 60reg-3 (dsDNA)
DNA 1: B6 DNA 1 with T20G, T21C, T40G, T41C
DNA 2: B6 DNA 2 with A20G, A21C, A40G, A41C
binding result [6]: binds

B8: 60reg-4 (dsDNA)
DNA 1: GAAAGTTTTTTCATGCACGTTCATAATTGGAATCAAAACAGGACAAATTGTCCTAAAACC
DNA 2: GGTTTTAGGACAATTTGTCCTGTTTTGATTCCAATTATGAACGTGCATGAAAAAACTTTC
binding result (M.SsoII (monomer on DNA) [8]): binds
